Data on two proteins can be found in US6277617A, “Chemically modified enzymes” (Genencor International, Inc., priority 1997, dated 2001).

Usually Km stands for the concentration of substrate that gives half-maximal velocity. What is called kcat is the maximal rate divided by the concentration of active sites. One may read the kcat/Km as the second-order rate constant that governs catalysis at low substrate concentration.

Substrate in the data set: C[C@H](NC(=O)CCC(=O)O)C(=O)N[C@@H](C)C(=O)N1CCC[C@H]1C(=O)N[C@@H](Cc1ccccc1)C(=O)Nc1ccc([N+](=O)[O-])cc1
The experiment in a line: Hydrolysis of succinyl-L-Ala-L-Ala-L-Pro-L-Phe-p-nitroanilide, kinetic parameters. It is filed as biochemical, Bacillus lentus. The following applies: pH 7.5, 0.1 M sodium phosphate, 0.5 M NaCl, 1% DMSO, 25° C. The procedure:
Activity, including the kinetic parameters kcat, KM, and kcat /KM were measured for hydrolysis of the synthetic peptide substrate succinyl-L-Ala-L-Ala-L-Pro-L-Phe-p-nitroanilide using the method described in Bonneau, P. et al. (1991) J. Am. Chem. Soc., 113(3):1030. Briefly, a small aliquot of subtilisin variant stock solution was added to a 1 cm cuvette containing substrate dissolved in 0.1 M sodium phosphate buffer, pH 7.5, containing 0.5 M NaCl and 1% DMSO, and thermostated at 25° C. or similarly at pH 8.6, 0.1 M tris buffer containing 0.05% Tween™80 and 1% DMSO. The reaction progress was followed spectrophotometrically by monitoring the absorbance of the reaction product p-nitroaniline at 410 nm using a Perkin Elmer λ2 spectrophotometer (Δε410 8800 M^-1 cm^-1).
The modified enzymes were prepared as described above after site-directed mutagenesis to replace the amino acid of interest with a cysteine. The kinetic parameters were determined at pH 7.5 as described above. The precursor protease was a Bacillus lentus subtilisin (SBL-WT).
To examine the effects of chemical modification on the pH profile of SBL, seven modified N62C mutants were made as described above. 0.02M ethylene diamine buffers of ionic strength 0.05M (adjusted with KCl) were employed with 1.25×10^-4 M succinyl-AAPF-pNA substrate and Kcat /KM measurements were performed as described above. Kcat /KM reflects the pKa of His64, part of the catalytic triad for SBL, in the free enzyme and is unaffected by nonproductive binding modes. Fersht, A. E. (1985) Enzyme Structure and Mechanism 2 ed., Freeman (New York). pKa was calculated using Graphit (McGeary & Associates, Middletown Conn.). The shift in pKa reflects a shift in the pH profile of SBL. Representative pH profiles for SBL N62C-Scylcohexyl (N62C-Scy) and SBL-WT are shown in FIG. 3 ([E]=1×10^-7 to 5×10^-8 M at 25° C.). Points were done in duplicate.

B1: Bacillus lentus subtilisin, wild type (SBL-WT) (Lederbergia lenta) (protein)
chain: AQSVPWGISRVQAPAAHNRGLTGSGVKVAVLDTGISTHPDLNIRGGASFVPGEPSTQDGNGHGTHVAGTIAALNNSIGVLGVAPSAELYAVKVLGASGSGSVSSIAQGLEWAGNNGMHVANLSLGSPSPSATLEQAVNSATSRGVLVVAASGNSGAGSISYPARYANAMAVGATDQNNNRASFSQYGAGLDIVAPGVNVQSTYPGSTYASLNGTSMATPHVAGAAALVKQKNPSWSNVQIRNHLKNTATSLGSTNLYGSGLVNAEAATR
notes: made in house; host or cells: B. subtilis
Regarding B1, under “other: SBL-WT”, the Km turned out to be 550 µM, the kcat stood at 48 s⁻¹ and the kcat/Km was determined as 87000 M⁻¹ s⁻¹.

B2: Bacillus lentus subtilisin (SBL) variant N62C (Lederbergia lenta; N60C) (protein)
chain: AQSVPWGISRVQAPAAHNRGLTGSGVKVAVLDTGISTHPDLNIRGGASFVPGEPSTQDGCGHGTHVAGTIAALNNSIGVLGVAPSAELYAVKVLGASGSGSVSSIAQGLEWAGNNGMHVANLSLGSPSPSATLEQAVNSATSRGVLVVAASGNSGAGSISYPARYANAMAVGATDQNNNRASFSQYGAGLDIVAPGVNVQSTYPGSTYASLNGTSMATPHVAGAAALVKQKNPSWSNVQIRNHLKNTATSLGSTNLYGSGLVNAEAATR
notes: as for B1
Regarding B2, where the note is “other: N62C”, the Michaelis-Menten constant (Km) was found to be 1490 µM, the kcat was 61 s⁻¹ and the kcat/Km was determined as 41000 M⁻¹ s⁻¹.
